Common to all, as to assay: peptide or protein array
Assay [1] addresses Tat SL8 epitope (Tat 28-35) (SIVmac239).
In assay [2] the target is PTPESANL (PL8) (SIVsm (isolated from sooty mangabeys) strains).
The target of assay [3] is TTPESANL (TL8) (SIVmac251 strains).

Take “rhesus MHC class I Mamu-A1*001 complex (heavy chain with human β2 microglobulin) (from UniProt P61769 21-119)”: the results for the binding score in assay [1], in assay [2] and in assay [3] were 8.33, 6.28 and 8.72, respectively. Also, the fluorescence intensity above the median (sd above the median) in assay [1] is 7.15.

For the origin of these results see paper PMC7065948.
